Results from the supplement of paper PMC9112550, “Optimization of the antimicrobial peptide Bac7 by deep mutational scanning” (BMC Biology, 2022).

These sequences were tested on Escherichia coli TOP10 (assay: shrunken log2 fold change of peptide-encoding DNA abundance (4.5 h post-induction vs induction); higher = less antimicrobial activity (less host growth inhibition)). Settings: time post-induction: 4.5 h; library: site-saturation at positions 5, 18, 19, 20.
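Also: peptides expressed intracellularly from a pBAD plasmid library in pooled LB shake-flask culture, induced with 0.3% L-arabinose, DNA abundance read by NGS, three biological replicates, DESeq2 with apeglm shrinkage.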

Sequence | shrunken log2 fold change
RRIRSRPPRLPRPRPRPEEHPRP | -0.0107
RRIRLRPPRLPRPRPRPGECPRP | 0.159
RRIRDRPPRLPRPRPRPPHCPRP | 0.0674
RRIRCRPPRLPRPRPRPTKQPRP | -0.0825
RRIRPRPPRLPRPRPRPYGFPRP | -0.426
RRIRVRPPRLPRPRPRPRQDPRP | 0.582
RRIRARPPRLPRPRPRPYDWPRP | 0.0315
RRIRERPPRLPRPRPRPAVTPRP | -0.13
RRIRARPPRLPRPRPRPQICPRP | 0.176
RRIRLRPPRLPRPRPRPGFLPRP | 0.0856
RRIRPRPPRLPRPRPRPFPYPRP | -0.0798
RRIRYRPPRLPRPRPRPQCMPRP | -0.931
RRIRMRPPRLPRPRPRPAEAPRP | 0.917
RRIRYRPPRLPRPRPRPQIRPRP | -0.00839
RRIRSRPPRLPRPRPRPWRCPRP | 0.0757
RRIRHRPPRLPRPRPRPFDNPRP | -0.0137
RRIRFRPPRLPRPRPRPIGMPRP | -0.0266
RRIRMRPPRLPRPRPRPEKEPRP | -0.0085
RRIRKRPPRLPRPRPRPVQTPRP | 0.914
RRIRVRPPRLPRPRPRPAHQPRP | 0.317
RRIRSRPPRLPRPRPRPMPCPRP | 0.216
RRIRVRPPRLPRPRPRPCHDPRP | -0.122
RRIRSRPPRLPRPRPRPNYNPRP | -0.904
RRIRIRPPRLPRPRPRPWYGPRP | -1.24
RRIRIRPPRLPRPRPRPEVHPRP | -0.102

Sequence | shrunken log2 fold change
RRIRERPPRLPRPRPRPAVVPRP | -0.171
RRIRQRPPRLPRPRPRPGSRPRP | 0.166
RRIRIRPPRLPRPRPRPVKQPRP | 0.101
RRIRNRPPRLPRPRPRPAGRPRP | 0.486
RRIRKRPPRLPRPRPRPNIIPRP | 0.00713
RRIRKRPPRLPRPRPRPRMSPRP | -0.216
RRIRQRPPRLPRPRPRPGRTPRP | -0.433
RRIRIRPPRLPRPRPRPEHVPRP | -0.0143
RRIRMRPPRLPRPRPRPQVFPRP | 0.281
RRIRNRPPRLPRPRPRPAKHPRP | 0.027
RRIRGRPPRLPRPRPRPCMAPRP | 0.703
RRIRHRPPRLPRPRPRPYYMPRP | -0.636
RRIRERPPRLPRPRPRPYYLPRP | -0.827
RRIRERPPRLPRPRPRPMNGPRP | -0.0134
RRIRMRPPRLPRPRPRPNLWPRP | 0.119
RRIRGRPPRLPRPRPRPSKFPRP | 0.0363
RRIRVRPPRLPRPRPRPHALPRP | -0.129
RRIRRRPPRLPRPRPRPCKLPRP | 0.00583
RRIRWRPPRLPRPRPRPLLNPRP | 0.00531
RRIRGRPPRLPRPRPRPDCVPRP | 1.39
RRIRYRPPRLPRPRPRPLRTPRP | -0.151
RRIRQRPPRLPRPRPRPLSAPRP | 0.0436
RRIRQRPPRLPRPRPRPWASPRP | -0.017
RRIRHRPPRLPRPRPRPMGMPRP | -0.254
RRIRVRPPRLPRPRPRPPVSPRP | 0.847

Sequence | shrunken log2 fold change
RRIRSRPPRLPRPRPRPNGTPRP | -0.188
RRIRHRPPRLPRPRPRPIHVPRP | 0.0364
RRIRPRPPRLPRPRPRPLQLPRP | -0.0598
RRIRYRPPRLPRPRPRPSQWPRP | -0.162
RRIRGRPPRLPRPRPRPPDRPRP | 0.564
RRIRSRPPRLPRPRPRPAGPPRP | 0.493
RRIRKRPPRLPRPRPRPNDGPRP | -0.0887
RRIRPRPPRLPRPRPRPAQQPRP | 0.263
RRIRFRPPRLPRPRPRPTMQPRP | 0.219
RRIRPRPPRLPRPRPRPWNKPRP | 0.163
RRIRRRPPRLPRPRPRPFLFPRP | 0.0785
RRIRPRPPRLPRPRPRPTVMPRP | 0.0636
RRIRMRPPRLPRPRPRPYSIPRP | -0.0122
RRIRKRPPRLPRPRPRPMIGPRP | 0.0437
RRIRERPPRLPRPRPRPNVVPRP | 0.0366
RRIRLRPPRLPRPRPRPSECPRP | 0.215
RRIRHRPPRLPRPRPRPVKAPRP | -0.0779
RRIRLRPPRLPRPRPRPAGMPRP | 0.213
RRIRRRPPRLPRPRPRPSMQPRP | 0.404
RRIRQRPPRLPRPRPRPWKNPRP | 0.033
RRIRARPPRLPRPRPRPYNLPRP | -0.00894
RRIRIRPPRLPRPRPRPGNIPRP | -0.479
RRIRARPPRLPRPRPRPVHVPRP | 0.00822
RRIRVRPPRLPRPRPRPLYPPRP | -0.586
RRIRDRPPRLPRPRPRPTIWPRP | -0.0201

Sequence | shrunken log2 fold change
RRIRARPPRLPRPRPRPRTWPRP | 0.669
RRIRPRPPRLPRPRPRPHGTPRP | -0.0314
RRIRARPPRLPRPRPRPFWQPRP | 0.0762
RRIRRRPPRLPRPRPRPPQMPRP | 1.24
RRIRNRPPRLPRPRPRPIKPPRP | -0.00904
RRIRGRPPRLPRPRPRPENKPRP | 0.32
RRIRYRPPRLPRPRPRPQYHPRP | -0.873
RRIRFRPPRLPRPRPRPMVLPRP | -0.0723
RRIRARPPRLPRPRPRPVFFPRP | 0.448
RRIRHRPPRLPRPRPRPMTKPRP | 0.0576
RRIRKRPPRLPRPRPRPCFFPRP | 0.113
RRIRNRPPRLPRPRPRPEGWPRP | 0.68
RRIRRRPPRLPRPRPRPFCMPRP | 0.084
RRIRGRPPRLPRPRPRPKLKPRP | 0.862
RRIRERPPRLPRPRPRPTHKPRP | 0.0682
RRIRGRPPRLPRPRPRPFSDPRP | 0.165
RRIRNRPPRLPRPRPRPFECPRP | -0.000687
RRIRFRPPRLPRPRPRPHFEPRP | -0.185
RRIRQRPPRLPRPRPRPDMAPRP | 0.0464
RRIRGRPPRLPRPRPRPVKTPRP | 0.0324
RRIRERPPRLPRPRPRPPFQPRP | 0.016
RRIRNRPPRLPRPRPRPLKFPRP | -0.212
RRIRSRPPRLPRPRPRPCNIPRP | -0.178
RRIRVRPPRLPRPRPRPNGFPRP | -0.0486
RRIRWRPPRLPRPRPRPMGRPRP | -0.012

Sequence | shrunken log2 fold change
RRIRTRPPRLPRPRPRPDGTPRP | -0.208
RRIRRRPPRLPRPRPRPHWVPRP | 0.0391
RRIRSRPPRLPRPRPRPIGRPRP | 0.104
RRIRMRPPRLPRPRPRPCSQPRP | -0.00549
RRIRCRPPRLPRPRPRPKSHPRP | -0.117
RRIRCRPPRLPRPRPRPRARPRP | 0.708
RRIRIRPPRLPRPRPRPHRPPRP | -0.166
RRIRQRPPRLPRPRPRPAWFPRP | 0.162
RRIRFRPPRLPRPRPRPPREPRP | 0.43
RRIRNRPPRLPRPRPRPLSHPRP | -0.596
RRIRNRPPRLPRPRPRPPKTPRP | -0.103
RRIRRRPPRLPRPRPRPTEKPRP | 0.155
RRIRLRPPRLPRPRPRPDNGPRP | -0.0567
RRIRVRPPRLPRPRPRPDTDPRP | -0.646
RRIRPRPPRLPRPRPRPLIFPRP | -0.411
RRIRRRPPRLPRPRPRPPMLPRP | 0.317
RRIRFRPPRLPRPRPRPHTRPRP | -0.223
RRIRVRPPRLPRPRPRPVVAPRP | 0.17
RRIRHRPPRLPRPRPRPTYPPRP | 0.0921
RRIRCRPPRLPRPRPRPQQHPRP | -0.113
RRIRERPPRLPRPRPRPSYMPRP | -0.0864
RRIRYRPPRLPRPRPRPCGPPRP | -0.436
RRIRFRPPRLPRPRPRPHYRPRP | -0.206
RRIRIRPPRLPRPRPRPHITPRP | -0.66
RRIRFRPPRLPRPRPRPNSCPRP | -0.895

Sequence | shrunken log2 fold change
RRIRGRPPRLPRPRPRPTGEPRP | 0.0778
RRIRWRPPRLPRPRPRPGPTPRP | 0.487
RRIRHRPPRLPRPRPRPSTWPRP | -0.674
RRIRDRPPRLPRPRPRPCATPRP | 0.00509
RRIRVRPPRLPRPRPRPWPSPRP | 0.143
RRIRRRPPRLPRPRPRPDMLPRP | -0.0772
RRIRERPPRLPRPRPRPMHCPRP | -0.0195
RRIRYRPPRLPRPRPRPWCSPRP | -0.504
RRIRNRPPRLPRPRPRPLRDPRP | 0.521
RRIRWRPPRLPRPRPRPWVEPRP | 0.0386
RRIRSRPPRLPRPRPRPTMHPRP | 0.0312
RRIRARPPRLPRPRPRPIFLPRP | -0.0119
RRIRIRPPRLPRPRPRPTKCPRP | -0.696
RRIRQRPPRLPRPRPRPTVAPRP | 0.118
RRIRQRPPRLPRPRPRPYCDPRP | -0.431
RRIRCRPPRLPRPRPRPHFLPRP | -0.657
RRIRERPPRLPRPRPRPMKDPRP | 0.13
RRIRERPPRLPRPRPRPDDKPRP | -0.433
RRIRTRPPRLPRPRPRPGRIPRP | -0.171
RRIRLRPPRLPRPRPRPLKYPRP | -0.0803
RRIRPRPPRLPRPRPRPYMSPRP | -0.636
RRIRIRPPRLPRPRPRPWKVPRP | 0.0349
RRIRQRPPRLPRPRPRPLVLPRP | 0.00943
RRIRGRPPRLPRPRPRPWASPRP | -0.00862
RRIRARPPRLPRPRPRPDFMPRP | 0.466
